IntAct's records for PubMed 17540176

B1: Serine/threonine-protein phosphatase 2A 65 kDa regulatory subunit A beta isoform (Homo sapiens), P30154 (parent)
chain: MAGASELGTGPGAAGGDGDDSLYPIAVLIDELRNEDVQLRLNSIKKLSTIALALGVERTRSELLPFLTDTIYDEDEVLLALAEQLGNFTGLVGGPDFAHCLLPPLENLATVEETVVRDKAVESLRQISQEHTPVALEAYFVPLVKRLASGDWFTSRTSACGLFSVCYPRASNAVKAEIRQQFRSLCSDDTPMVRRAAASKLGEFAKVLELDSVKSEIVPLFTSLASDEQDSVRLLAVEACVSIAQLLSQDDLETLVMPTLRQAAEDKSWRVRYMVADRFSELQKAMGPKITLNDLIPAFQNLLKDCEAEVRAAAAHKVKELGENLPIEDRETIIMNQILPYIKELVSDTNQHVKSALASVIMGLSTILGKENTIEHLLPLFLAQLKDECPDVRLNIISNLDCVNEVIGIRQLSQSLLPAIVELAEDAKWRVRLAIIEYMPLLAGQLGVEFFDEKLNSLCMAWLVDHVYAIREAATNNLMKLVQKFGTEWAQNTIVPKVLVMANDPNYLHRMTTLFCINALSEACGQEITTKQMLPIVLKMAGDQVANVRFNVAKSLQKIGPILDTNALQGEVKPVLQKLGQDEDMDVKYFAQEAISVLALA
partner: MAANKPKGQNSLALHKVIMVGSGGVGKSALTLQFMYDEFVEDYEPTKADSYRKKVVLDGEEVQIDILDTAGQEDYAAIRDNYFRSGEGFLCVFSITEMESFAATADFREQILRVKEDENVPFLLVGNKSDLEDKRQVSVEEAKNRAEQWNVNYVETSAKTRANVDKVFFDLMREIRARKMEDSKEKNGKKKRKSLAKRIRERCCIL
B2: Ras-related protein Ral-A (Homo sapiens), P11233 (parent)
chain: B1 partner
B3: Serine/threonine-protein phosphatase 2A 65 kDa regulatory subunit A beta isoform (Homo sapiens), P30154 (parent)
chain: B1 chain
B4: Serine/threonine-protein phosphatase 2A 65 kDa regulatory subunit A beta isoform (Homo sapiens), P30154 (parent)
chain: B1 chain
partner: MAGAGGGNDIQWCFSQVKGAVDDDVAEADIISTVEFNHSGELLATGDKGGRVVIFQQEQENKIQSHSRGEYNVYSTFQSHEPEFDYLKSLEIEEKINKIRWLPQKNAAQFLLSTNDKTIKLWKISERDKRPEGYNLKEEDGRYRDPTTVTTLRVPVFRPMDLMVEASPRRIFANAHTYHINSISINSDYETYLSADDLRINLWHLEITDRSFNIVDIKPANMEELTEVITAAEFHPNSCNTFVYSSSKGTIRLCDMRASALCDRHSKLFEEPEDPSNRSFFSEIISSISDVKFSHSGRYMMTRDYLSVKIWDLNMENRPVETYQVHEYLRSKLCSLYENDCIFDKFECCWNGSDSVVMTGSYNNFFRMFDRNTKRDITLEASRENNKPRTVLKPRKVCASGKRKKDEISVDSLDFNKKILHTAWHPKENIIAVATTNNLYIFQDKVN

Variants of: B1
Settings: with rala_human RALA

Variant | effect of a mutation on the interaction
V545A | decreasing interaction
V448A | decreasing interaction
G8R | decreasing interaction

Variants of: B2
Settings: with 2aab_human PPP2R1B

Variant | effect of a mutation on the interaction
S183A | decreasing interaction
S194A | decreasing interaction

Variants of: B3
Settings: with 2a5g_human PPP2R5C

Variant | effect of a mutation on the interaction
K343E | decreasing interaction
V448A | decreasing interaction
V545A | decreasing interaction
L101P;V448A | decreasing interaction
D504G | decreasing interaction
L101P | decreasing interaction

Variants of: B3
Settings: with pp2aa_human PPP2CA

Variant | effect of a mutation on the interaction
V448A | decreasing interaction
L101P;V448A | decreasing interaction
L101P | decreasing interaction

Variants of: B3
Settings: with 2a5a_human PPP2R5A

Variant | effect of a mutation on the interaction
V448A | decreasing interaction
L101P;V448A | decreasing interaction
L101P | decreasing interaction

Variants of: B3
Settings: with 2a5d_human PPP2R5D

Variant | effect of a mutation on the interaction
V448A | decreasing interaction
V545A | decreasing interaction
L101P;V448A | decreasing interaction
L101P | decreasing interaction

Variants of: B4
Settings: with 2aba_human PPP2R2A

Variant | effect of a mutation on the interaction
L101P;V448A | decreasing interaction
